According to the supplement of paper PMC9170038:

Assays:
[1] = tested on: MS2 coat protein; test: apparent KD of MS2 coat protein; designed switch direction (-1 OFF switch, 1 ON switch): 1; higher = weaker reporter binding; details: Eterna round: R98
Protocol: (§1)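 RNA-MaP: designed FMN/MS2 RNA switches (84 nt design region) are transcribed on-chip within common flanks and titrated with SNAP-549-labelled MS2 coat protein (about 1-3000 nM) in 100 mM Tris pH 7.5, 80 mM KCl, 4 mM MgCl2, without or with 200 uM FMN. Median apparent KD per design; activation ratio = KD,OFF / KD,ON.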

[2] = tested on: MS2 coat protein; test: apparent KD of MS2 coat protein; higher = weaker reporter binding; details: Eterna round: R101
Protocol: as §1

Sequence: GGAGACCUCACAGGAUAUGCUGGACUUUGUCCAGCAGAAGGGUGUUUAACAUGAGGAUCACCCAUGUAGGUCUCCAAAUUUAAU [Denovo 60]
- apparent KD of MS2 coat protein ([1]; input ligand: FMN 200 uM): 0.046 µM
- apparent KD of MS2 coat protein ([1]; input ligand: none): 0.707 µM

Sequence: GUAGCAUACCGAGGAUAUUCAUACUGGAAACAGACAUGAGGAUCACCCAUGUGGCGAAAGCCUUGGGAGAAGGCGGAAUGCUAC [EliMod 9 - Jieux - Same State NG 2]
- apparent KD of MS2 coat protein ([1]; input ligand: FMN 200 uM): 0.0424 µM
- apparent KD of MS2 coat protein ([1]; input ligand: none): 0.545 µM

Sequence: AGACCUGCUCAGAAGGCGGAAACGAGGCUGGAAACAGCCUCGAAUUAAGAUCUUCGAGGAUCACCCGAGGAUAUGAGCAGGUCA [#SharedSequence - IExNG2: 14] (puzzle (switch architecture): Inverted Exclusion NG 2)
- apparent KD of MS2 coat protein ([2]; input ligand: FMN 200 uM): 0.593 µM
- apparent KD of MS2 coat protein ([2]; input ligand: none): 0.0607 µM

Sequence: CCGACGCUUCAGAAGGCACUCGCAUAAUGCGAGUGAGGAUAUGAGGAUCACCCAUAUCAACGUCGGAGUCACCGAAACGGUGAC [#SharedSequence - IEx NG 2-2] (puzzle (switch architecture): Inverted Exclusion NG 1)
- apparent KD of MS2 coat protein ([2]; input ligand: FMN 200 uM): 0.0144 µM
- apparent KD of MS2 coat protein ([2]; input ligand: none): 0.00854 µM

Sequence: AAUAAUUCUUAAGGAUAUCAGUGGCAAAGCCACUGAGAAGGUGAGGAUCACCCACCUACGUGACGCUGGAAACAGCGUCACGAA [#SharedSequence ExNG1 - 30] (puzzle (switch architecture): Exclusion NG 1)
- apparent KD of MS2 coat protein ([2]; input ligand: FMN 200 uM): 0.0231 µM
- apparent KD of MS2 coat protein ([2]; input ligand: none): 0.0162 µM

Sequence: AAUUAAAUCCUAGGAUAUCAGUGGCAAAGCCACUGAGAAGGAGGAUCACCCUUUCAAACGUGACGCUGGAAACAGCGUCACGAA [#SharedSequence - ExNG1-18] (puzzle (switch architecture): Exclusion NG 1)
- apparent KD of MS2 coat protein ([2]; input ligand: FMN 200 uM): 0.444 µM
- apparent KD of MS2 coat protein ([2]; input ligand: none): 0.699 µM

Sequence: AAGUGAAAUCAGAAGGCGUGGACGAAACGUCCACGAGGAUAUGAGGAUCACCCAUAUCAGGUCAGCCUGCAAAGCAGGCUGACC [#SharedSequence - IExNG1: 5-2] (puzzle (switch architecture): Inverted Exclusion NG 1)
- apparent KD of MS2 coat protein ([2]; input ligand: FMN 200 uM): 0.537 µM
- apparent KD of MS2 coat protein ([2]; input ligand: none): 0.0302 µM

Sequence: AAUAAAGAUCCUAGAGGAUCACCCUAGGAUAUGAGGCUGCACCUCGGAUAAUCCGAGGUGCAGCCUCAGAAGGAGGAAAUAAAU [#SharedSequence - SLExNG3: 5-2] (puzzle (switch architecture): Small Loop Exclusion NG 3)
- apparent KD of MS2 coat protein ([2]; input ligand: FMN 200 uM): 0.0258 µM
- apparent KD of MS2 coat protein ([2]; input ligand: none): 0.0116 µM

Sequence: AUAUGAUUAAGAGGAUAUAUACAACAUGAGGAUCACCCAUGUACCCAUGUAGUAGAAGGUUUAUUUUUAUAUAAUAAUAUAAUU [AstrosLoopssng1#12] (puzzle (switch architecture): Small Loop Same State NG 1)
- apparent KD of MS2 coat protein ([2]; input ligand: FMN 200 uM): 0.0614 µM
- apparent KD of MS2 coat protein ([2]; input ligand: none): 0.0829 µM

Sequence: GUAGCAGCGGCGCCCUCGUAGACAUGAGGAUCACCCAUGUCGCAGGAUAUCAGAAGCGGAGCUGCUGAGAAGGGCGACAUAAGG [Quorus] (puzzle (switch architecture): Exclusion NG 3)
- apparent KD of MS2 coat protein ([2]; input ligand: FMN 200 uM): 0.0138 µM
- apparent KD of MS2 coat protein ([2]; input ligand: none): 0.00725 µM

Sequence: UUGGACGUCGUAGGAUAUGUAGGAUAUUCCUACAUGAGGAUCACCCAUGUUGAAAUGGAAGAAGGACAGAAGGACGAUGUCCAU (puzzle (switch architecture): Same State NG 2)
- apparent KD of MS2 coat protein ([2]; input ligand: FMN 200 uM): 0.00383 µM
- apparent KD of MS2 coat protein ([2]; input ligand: none): 0.0194 µM

Sequence: UGAUAGGACAGAGGAUAUACGUGCUAGAGAUACUAGCAAAAUUUCCUCACAUGAGGAUCACCCAUGUAGAAGGCUGUCCUAUCU [#PyrimidineMS2Turnoff - Eli xng 2.01 rotated] (puzzle (switch architecture): Exclusion NG 2)
- apparent KD of MS2 coat protein ([2]; input ligand: FMN 200 uM): 0.533 µM
- apparent KD of MS2 coat protein ([2]; input ligand: none): 0.0165 µM

Sequence: UGGUACUAGGGAGGAUAUGGGAAGAUACAUGAGGAUCACCCAUGUUUAAGAAUGCCGAGAGGCAACUAGAAGGCCCUAGUACCU (puzzle (switch architecture): Same State NG 2)
- apparent KD of MS2 coat protein ([2]; input ligand: FMN 200 uM): 0.0189 µM
- apparent KD of MS2 coat protein ([2]; input ligand: none): 0.437 µM

Sequence: GGAUAGGACAGAGGAUAUACGUGCUAGAGAUACUAGCAAAAUUUCCUCACAUGAGGAUCACCCAUGUAGAAGGCGGUCCUAUCG (puzzle (switch architecture): Exclusion NG 2)
- apparent KD of MS2 coat protein ([2]; input ligand: FMN 200 uM): 0.0088 µM
- apparent KD of MS2 coat protein ([2]; input ligand: none): 0.00537 µM

Sequence: AAAUAACUUGAAGGAUAUGACCCUCGAGGUGACUAAAAGUCACCUCGAGGGUCAGAAGGUCGAGGAUCACCCGACCAAAUAAAU [#SharedSequence SLExNG1: 10] (puzzle (switch architecture): Small Loop Exclusion NG 1)
- apparent KD of MS2 coat protein ([2]; input ligand: FMN 200 uM): 0.0112 µM
- apparent KD of MS2 coat protein ([2]; input ligand: none): 0.0109 µM

Sequence: GUACAUGAGGAUCACCCAUGUCACAUAACGUCCGAGGAUACCAGAAGGGCAGACGUUACGACGGUGCAGGAUAUGGGCUCCUAA [Beceanbe] (puzzle (switch architecture): Inverted Same State NG 3)
- apparent KD of MS2 coat protein ([2]; input ligand: FMN 200 uM): 0.0372 µM
- apparent KD of MS2 coat protein ([2]; input ligand: none): 0.0566 µM

Sequence: UUUAAUAUUAUAGGAUAUGGAUACGAUACGUAUCCAGAAGGGUGAUUAUAAUAUAAUCUAUACAUGAGGAUCACCCAUGUUUAU [AtrosYaY8] (puzzle (switch architecture): Same State NG 1)
- apparent KD of MS2 coat protein ([2]; input ligand: FMN 200 uM): 0.0848 µM
- apparent KD of MS2 coat protein ([2]; input ligand: none): 0.205 µM

Sequence: CCGACGACUUAGAAGGCACUCGCAUAAUGCGAGUGAGGAUAUGAGGAUCACCCAUAUCAACGUCGGAGUCACCGAAACGGUGAC [#SharedSequence - IEx NG 4-2] (puzzle (switch architecture): Inverted Exclusion NG 1)
- apparent KD of MS2 coat protein ([2]; input ligand: FMN 200 uM): 0.00798 µM
- apparent KD of MS2 coat protein ([2]; input ligand: none): 0.00845 µM

Sequence: GGAUAGGACAGAGGAUAUACGUGCUAGAGAUACUAGCAAAAUUUCCUCACAUGAGGAUCACCCAUGUAGAAGGCUGUCCUAUCU (puzzle (switch architecture): Exclusion NG 2)
- apparent KD of MS2 coat protein ([2]; input ligand: FMN 200 uM): 0.395 µM
- apparent KD of MS2 coat protein ([2]; input ligand: none): 0.0186 µM

Sequence: GGCAGCUUUCAGAAGGGAGUGCGAUAAUCGCACUCAGGAUAUGAGGAUCACCCAUAUCAUGCUGCCACUGAGGCAAAGCCUCAG [#SharedSequence - IEx NG 3-1] (puzzle (switch architecture): Inverted Exclusion NG 1)
- apparent KD of MS2 coat protein ([2]; input ligand: FMN 200 uM): 0.0133 µM
- apparent KD of MS2 coat protein ([2]; input ligand: none): 0.011 µM

Sequence: AAGUGAAAUCAGAAGGCGUGGACGAAACGUCCACGAGGAUAUGAGGAUCACCCAUGUCAGGUCAGCCUGCAAAGCAGGCUGACC [#SharedSequence - IExNG1: 6-1] (puzzle (switch architecture): Inverted Exclusion NG 1)
- apparent KD of MS2 coat protein ([2]; input ligand: FMN 200 uM): 0.259 µM
- apparent KD of MS2 coat protein ([2]; input ligand: none): 0.0662 µM

Sequence: AGUCGGAGCAGAGGAUAUUACAUGAGGAUCACCCAUGUAUGAACCAAUAGCUGGAAACAGCAAUGUAAGAAGGCUGCUCCGACA (puzzle (switch architecture): Exclusion NG 2)
- apparent KD of MS2 coat protein ([2]; input ligand: FMN 200 uM): 0.169 µM
- apparent KD of MS2 coat protein ([2]; input ligand: none): 0.0129 µM

Sequence: GGAUAGGACAGAGGAUAUACGUGCUAGAGAUACUAGCAAAAUAUCCUCACAUGAGGAUCACCCAUGUAGAAGGCUGUCCUAUCG (puzzle (switch architecture): Exclusion NG 2)
- apparent KD of MS2 coat protein ([2]; input ligand: FMN 200 uM): 0.0201 µM
- apparent KD of MS2 coat protein ([2]; input ligand: none): 0.00549 µM

Sequence: GGAGAUACAUGAGGAUCACCCAUGUAGGAUAUCGGGCCCGUGCCCGGCGAAAGCCGGGCACGGGCCGAGAAGGGCGUACACACC [#LOL-3] (puzzle (switch architecture): Small Loop Exclusion NG 3)
- apparent KD of MS2 coat protein ([2]; input ligand: FMN 200 uM): 0.00766 µM
- apparent KD of MS2 coat protein ([2]; input ligand: none): 0.00878 µM

Sequence: AGUGUCAUCGAGAAGGCCUCAACAUGAGGAUCACCCAUUUUGAAAAGUGGGAGGAUAUCGAUGAUACAGCUACGUUUCGUAGCA [salish99_InSLSSNG1_023 #HINGE] (puzzle (switch architecture): Inverted Small Loop Same State NG 1)
- apparent KD of MS2 coat protein ([2]; input ligand: FMN 200 uM): 0.132 µM
- apparent KD of MS2 coat protein ([2]; input ligand: none): 0.107 µM

Sequence: AGGAGAAAUGUAGGAUAUGGGCGGGCGUAUGGGCAAAGCGCAUACGCCCGCCCAGAAGGACAUGAGGAUCACCCAUGUUUCCCU [#Lowering the energy 2] (puzzle (switch architecture): Small Loop Exclusion NG 1)
- apparent KD of MS2 coat protein ([2]; input ligand: FMN 200 uM): 0.0138 µM
- apparent KD of MS2 coat protein ([2]; input ligand: none): 0.0117 µM

Sequence: GGAGAUACAUGAGGAUCACCCAUGUAGGAUAUAUAGUAUAUAUAUGGCGAAAGCCAUAUAUAUAUAUAGAAGGGCGUACACACC [#LOL-14] (puzzle (switch architecture): Small Loop Exclusion NG 3)
- apparent KD of MS2 coat protein ([2]; input ligand: FMN 200 uM): 0.00728 µM
- apparent KD of MS2 coat protein ([2]; input ligand: none): 0.00822 µM

Sequence: CCAGUUCUGGCAUCCUUAUUACAUGAGGAUCACCCAUGUUGUGAGGAUAUCCCAACCCACGGUCAGGAGAAGGCACAUAGAGGG [Eduscebira] (puzzle (switch architecture): Exclusion NG 3)
- apparent KD of MS2 coat protein ([2]; input ligand: FMN 200 uM): 0.00537 µM
- apparent KD of MS2 coat protein ([2]; input ligand: none): 0.00589 µM

Sequence: GUAGCAUACGGAGGAUAUUCAUACCGGAAACGGACAUGAGGAUCACCCAUGUGGCGAAAGCCUUGGGAGAAGGCCGUAUGCUAC [#DoubleMagnetSystem - Mat - Same State NG 2 - JL Mod - D 61] (puzzle (switch architecture): Same State NG 2)
- apparent KD of MS2 coat protein ([2]; input ligand: FMN 200 uM): 0.00806 µM
- apparent KD of MS2 coat protein ([2]; input ligand: none): 0.187 µM

Sequence: GGAGAUACAUGAGGAUCACCCAUGUAGGAUAUCGGGCCCGUACCCGGCGAAAGCCGGGUACGGGCCGAGAAGGGCGUACACACC [#LOL-4] (puzzle (switch architecture): Small Loop Exclusion NG 3)
- apparent KD of MS2 coat protein ([2]; input ligand: FMN 200 uM): 0.00927 µM
- apparent KD of MS2 coat protein ([2]; input ligand: none): 0.0093 µM

Sequence: CGCUAUUACAUGAGGAUCACCCAUGUAUACAUGGGAUUGUCGUAGGAUAUGCAGAAGAUUAAAGUGCAGAAGGACGGUAUAGCG [JR #DistanceClose #Static #StaticP #NP SSNG3 Sub068] (puzzle (switch architecture): Same State NG 3)
- apparent KD of MS2 coat protein ([2]; input ligand: FMN 200 uM): 0.00103 µM
- apparent KD of MS2 coat protein ([2]; input ligand: none): 0.00346 µM
